The results in this text go back to US20250355001A1, “METHOD FOR DETECTING A TAU PROTEIN FRAGMENT IN A SAMPLE” (GTINVENT LIMITED, priority 2022, published 2025).

Format in all cases: binding
For one test, the target named is dGA (SEQ ID NO: 5) (Homo sapiens, UniProt P10636). Kind of test: Biacore X100 SPR kinetics of scAbs for dGA. The following applies: Table 24, scAb, dGA analyte; for Kd: dissociation rate. As for the experimental part: Surface plasmon resonance (SPR) is widely regarded as the gold standard for real time measurement of protein-protein interactions such as antibody binding. All SPR experiments were carried out using a Biacore X100 machine and HBS EP+ running buffer (GE Healthcare). A ‘capture’ method was followed for affinity measurements, where an anti-human constant kappa chain (HuCk) antibody was conjugated to the surface of a CM5 sensor chip using an amine coupling kit and scAb molecules were immobilised via their HuCk domain. Amine coupling is a very common approach for immobilising the ligand to the chip surface. The chip surface has a dextran matrix derivatised with carboxyl groups, which after activation with N-hydroxysuccinimide (NHS) and 1-ethyl-3-(3-dimethylaminopropyl) carbodiimide (EDC), form reactive succinimide esters which allows the covalent capturing of the ligand via any available primary amine groups (e.g. Lysine) on the ligand (in this case anti-HuCk antibody). The capture antibody was diluted 1/100 in 10 mM Sodium acetate buffer pH 5.0 and passed over the activated chip surface for a period of at least 420 s. Final ligand immobilisation levels over 12,000 RU were deemed to be satisfactory.
Sequence of dGA (SEQ ID NO: 5) (P10636 614-707): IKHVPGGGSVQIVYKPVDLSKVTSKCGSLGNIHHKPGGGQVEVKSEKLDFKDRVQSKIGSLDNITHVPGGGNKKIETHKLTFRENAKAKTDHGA
Following immobilisation, the level of each scAb to be captured was identified using the standard SPR equation with a theoretical RMax of 100 RU. Analyte MW refers to the molecular weight of hT40 or dGA/dGAE molecules, while ligand MW refers to the molecular weight of the scAbs tested. RL is the desired capture level and S refers to the stoichiometric ratio:
The scAb to be tested was added only to flow cell 2 so that flow cell 1 could act as a control to subtract any interaction with the analyte and the chip surface. Both single and multi-cycle runs were utilised using wizards developed in the Biacore X100 control software which are both accepted methods of kinetic analysis (Karlsson, R., et al. Analyzing a kinetic titration series using affinity biosensors (2006) Analytical Biochemistry 349:136-47). The multi-cycle protocol was as follows-Three start-up cycles composed of an initial capture, to the desired level, of the scAb to be tested was performed followed by a 30 s injection of glycine buffer pH 2.0 after each cycle to regenerate the chip surface. The regeneration step removed any captured scAb whilst leaving the capture antibody intact and able to repeat the capture for the next cycle. Following three start-up cycles increasing concentrations (0.15625 nM-100 nM) of the target to be tested were added to the chip surface after the desired scAb capture. The target was added for a 120 s association period and 420 s dissociation period followed by another regeneration, 30 s injection of glycine buffer pH 2.0 in between each cycle.
The single cycle kinetics protocol was similar and utilised the same level of scAb capture. Three start-up cycles were used followed by 5 increasing concentrations of the analyte (6.25 nM-100 nM) for an association period of 120 s followed by a dissociation period of 420 s for each concentration. In single cycle kinetics the regeneration step was performed only after the final analyte concentration was added. Binding responses were analysed in Biacore X100 evaluation software and data fitted to a 1:1 binding model to obtain kinetic and affinity characterisation.
On the technique in general: In SPR one partner is held on a chip, and binding of the other changes the refractive index at the surface.

The target in test [1] is T1, hT40 (T441, SEQ ID NO: 1) (Homo sapiens, UniProt P10636).
T1 construct: Full length tau (hT40)
T1 sequence (P10636 1-441 isoform P10636-8): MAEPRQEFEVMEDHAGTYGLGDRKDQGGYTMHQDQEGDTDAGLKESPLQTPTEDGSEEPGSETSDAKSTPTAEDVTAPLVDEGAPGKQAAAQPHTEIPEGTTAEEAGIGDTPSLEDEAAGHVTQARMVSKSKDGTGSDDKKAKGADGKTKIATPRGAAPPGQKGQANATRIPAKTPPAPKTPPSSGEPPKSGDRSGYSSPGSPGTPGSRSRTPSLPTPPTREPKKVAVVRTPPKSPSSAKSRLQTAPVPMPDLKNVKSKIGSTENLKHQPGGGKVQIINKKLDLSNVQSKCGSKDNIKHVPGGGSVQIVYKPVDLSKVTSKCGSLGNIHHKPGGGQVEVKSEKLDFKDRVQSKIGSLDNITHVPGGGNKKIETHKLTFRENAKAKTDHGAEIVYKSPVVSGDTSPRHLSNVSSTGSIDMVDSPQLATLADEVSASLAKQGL
Kind of test: Biacore X100 SPR kinetics of scAbs for hT40. The conditions noted are these: Table 23; scAb captured, T441 (hT40) analyte; 1:1 model. The essentials: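 Captured scAb on anti-HuCk CM5 surface (flow cell 1 as reference) in HBS-EP+, capture set for theoretical RMax 100 RU; hT40 injected multi-cycle (0.15625–100 nM) or single-cycle (6.25–100 nM), 120 s association, 420 s dissociation, glycine pH 2.0 regeneration. Kinetics and affinity from 1:1 binding model fit.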

The target in a further test is T2, htau40 (Homo sapiens, UniProt P10636).
T2 construct: Full length tau (hT40)
T2 sequence (P10636 1-441 isoform P10636-8): as above
The test can be described thus: Biacore X100 SPR kinetics of anti-tau mAbs on immobilised htau40. In outline: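 Htau40 amine-coupled to CM5 chip (~250 RU, pH 4.0 immobilisation), reference flow cell subtracted; mAb injected at 0.78–25 nM in HBS-EP+, 120 s association, 600 s dissociation, glycine pH 1.5 regeneration. Kinetic and affinity constants from 1:1 binding model fit.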

Where [2] appears, read: Table 27, mAb format, immobilised htau40.
[3] abbreviates: second Table 25, newly converted mAbs, hT40.

B1: CE2: anti-tau core clone, Table 10; SEQ ID NO: 366 (protein)
scFv: QVQLQESGPSLVKPSQTLSLTCTVSGFSLTNYPVGWVRQAPGKALEWIGNIENDGSANYASALKSRLSITRDTSKNQVSLSLSSATTEDTAVYYCGREFGGSDGYTYFVDIDYWGPGLLVTVSSEGKSSGASGESKVDDQAVLTQPSSVSKSLGQSVSITCSGSSSNVGYGNYVSWFQQVPGSAPKILIYGATSRASGVPDRFSGSRSGNTATLTITSLQAEDEADYYCASYDGSSSGVFGSGTRLTVLG
modifications: CE2/E1B8 amino acid sequence
In the case of B1, the “ka” value with dGA (SEQ ID NO: 5) came out at 137000 M⁻¹ s⁻¹; in test [1] it was 213700 M⁻¹ s⁻¹; in the test with htau40 (setting [2]), 457900 M⁻¹ s⁻¹; with htau40 (setting [3]), 323800 M⁻¹ s⁻¹. In addition, the “Kd” value in the test with dGA (SEQ ID NO: 5) amounted to 0.00242 s⁻¹. For the same molecule, the figures for the “kd” value (in test [1]; with htau40 (setting [2]); with htau40 (setting [3])) were 0.001077 s⁻¹, 0.005218 s⁻¹ and 0.001367 s⁻¹, respectively.

B2: S1D12: sheep-derived anti-tau core clone; scFv SEQ ID NO: 32, VH 443, VL 444 (protein)
scFv: QVQLQESGPSLVKPSQTLSLTCTVSGFSLNNNAVGWVRQAPGKVPESLVGCSSDGTCYYNSALKSRLDITRDTSKNQISLSLSSVTTDDAAVYYCTRGHYSIYGYDYLGTIDYWGPGLLVTVSSEGKSSGASGESKVDDQAVLTQPSSVSGSLGQRVSITCSGSSSNVGGGNSVGWYQHLPGSGLKTIIYDTNSRPSGVPDRFSGSRSGNTATLTINSLQAEDEGDYYCVTGDSTTHDDLVGSGTRLTVLG
modifications: S1D12 amino acid sequence
Take B2: the “ka” value with dGA (SEQ ID NO: 5) turned out to be 1.21e+06 M⁻¹ s⁻¹; in test [1] it was 1.252e+06 M⁻¹ s⁻¹; with htau40 (setting [2]), 405800 M⁻¹ s⁻¹. Besides, the “Kd” value with dGA (SEQ ID NO: 5) turned out to be 0.000418 s⁻¹; in the test with htau40 (as quoted in Example 32, read-out: affinity) it was 0.12 nM. Besides, the “kd” value in test [1] stood at 0.00015 s⁻¹; with htau40 (setting [2]), 4.093e-05 s⁻¹.

B3: S1G2: sheep-derived anti-tau core clone; scFv SEQ ID NO: 81, VH 455, VL 456 (protein)
scFv: QVQLQESGPSLVKPSQTLSLTCTVSGFSLTSNSVGWVRQAPGKAPEWVAGIDTDGEEGYNPALNSRLSITRDTSKSQVSLSLSSVTSEDTAVYYCGRSYRADGLAYGYVQAIDYWGPGLLVTVSSEGKSSGASGESKVDDQAVVTQPSSVSGSLGQRVSITCSGSFIGISSVGWFQQLPGSGLRTIIVASDGRPSGVPDRFSMSKSGNTATLTISSLQAEDEADYFCGSSDRTPYTGVFGSGTRLTVLG
modifications: S1G2 amino acid sequence
Take B3: in the test with dGA (SEQ ID NO: 5), the “ka” value turned out to be 783000 M⁻¹ s⁻¹ and the “Kd” value stood at 0.0003499 s⁻¹. In test [1], the “ka” value was 1.057e+06 M⁻¹ s⁻¹ and the “kd” value stood at 0.00018 s⁻¹. Besides, in the test with htau40 (setting [2]), the “ka” value is 339800 M⁻¹ s⁻¹ and the “kd” value worked out at 4.748e-05 s⁻¹.
